According to the supplement of paper PMC12042874:
± gives the uncertainty stated by the source.

Assay: amyloid nucleation score (Sup35N fusion, yeast selection) (log enrichment); library NNK3; higher = more nucleation; inactive = no reads after selection
Outline: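 Peptides of 20 random codons, each fused to Sup35N, were expressed in psi-negative yeast. Cells were induced with 100 μM copper sulfate for 24 hours and grown 7 days at 30°C on medium lacking adenine and uracil, and plasmid inserts before and after selection were Illumina-sequenced. Nucleation scores are DiMSum log enrichments of output over input reads, centred on the mode score of non-aggregating sequences, and sequences under 100 input reads were excluded.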

Question: With SLLDDRSPGLWILKTKVTAF as the substance, how does the amyloid nucleation score read?
Answer: The amyloid nucleation score was “inactive”.

Question: With SLLGSEGVSLIFLHYYWWSA as the substance, how does the amyloid nucleation score read?
Answer: Its amyloid nucleation score is “inactive”.

Question: With SLLTFCFHIESLWMWYWMCH as the substance, how does the amyloid nucleation score read?
Answer: Its amyloid nucleation score is “inactive”.

Question: Which amyloid nucleation score does the source give for SLMSFRYLRTFKWRSMSILS here?
Answer: Its amyloid nucleation score is “inactive”.

Question: For SLMSSATICTFMG, which amyloid nucleation score is on record?
Answer: Its amyloid nucleation score is “inactive”.

Question: Which amyloid nucleation score does the source give for SLNEHNAGGIVTLHWQSIES here?
Answer: The amyloid nucleation score was “inactive”.

Question: For SLNKWVGCRSRIRWDLGTQF, which amyloid nucleation score is on record?
Answer: Its amyloid nucleation score is “inactive”.

Question: For SLPLCWAMAKGSISHRMERY, which amyloid nucleation score is on record?
Answer: The amyloid nucleation score was “inactive”.

Question: For SLPWVIF, which amyloid nucleation score is on record?
Answer: The amyloid nucleation score was “inactive”.

Question: For SLRWLISESAMRVKTMWRGG, which amyloid nucleation score is on record?
Answer: Its amyloid nucleation score is “inactive”.

Question: With SLSSIGSDFNGGC as the substance, how does the amyloid nucleation score read?
Answer: The amyloid nucleation score was “inactive”.

Question: With SLSSSWFFNISSNADMPCYN as the substance, how does the amyloid nucleation score read?
Answer: Its amyloid nucleation score is “inactive”.

Question: With SLTLGCSDLGKGCREETYAG as the substance, how does the amyloid nucleation score read?
Answer: The amyloid nucleation score was “inactive”.

Question: With SLVEAGMFTQFS as the substance, how does the amyloid nucleation score read?
Answer: Its amyloid nucleation score is “inactive”.

Question: With SMADHAESLNSSGSNRQQLG as the substance, how does the amyloid nucleation score read?
Answer: Its amyloid nucleation score is “inactive”.

Question: For SMAMFIFMITLVCYFKDSPW, which amyloid nucleation score is on record?
Answer: Its amyloid nucleation score is “inactive”.

Question: For SMDTSTPTIV, which amyloid nucleation score is on record?
Answer: Its amyloid nucleation score is “inactive”.

Question: Which amyloid nucleation score does the source give for SMDVKHRR here?
Answer: Its amyloid nucleation score is “inactive”.

Question: With SMFKLMRP as the substance, how does the amyloid nucleation score read?
Answer: The amyloid nucleation score was “inactive”.

Question: For SMGVFAKRRKGRWNTYSIKA, which amyloid nucleation score is on record?
Answer: The amyloid nucleation score was “inactive”.

Question: For SMIKPAIFGYNVMLVPYINC, which amyloid nucleation score is on record?
Answer: The amyloid nucleation score was “inactive”.

Question: With SMKQMNMQHSSPRNRTDGRR as the substance, how does the amyloid nucleation score read?
Answer: The amyloid nucleation score was “inactive”.

Question: Which amyloid nucleation score does the source give for SMKVEEIICGFAVVYIDTMY here?
Answer: Its amyloid nucleation score is 0.256 ± 0.28.

Question: For SMNACSRNGLGMWKVMDLFT, which amyloid nucleation score is on record?
Answer: The amyloid nucleation score was “inactive”.

Question: With SMNFLLLISMCNLWPSYAAL as the substance, how does the amyloid nucleation score read?
Answer: The amyloid nucleation score was 1.36 ± 0.14.

Question: With SMNFVLLRGGRRMIQQDRVR as the substance, how does the amyloid nucleation score read?
Answer: Its amyloid nucleation score is “inactive”.

Question: Which amyloid nucleation score does the source give for SMPRAEHSDVSCYAHYFSFR here?
Answer: Its amyloid nucleation score is “inactive”.

Question: Which amyloid nucleation score does the source give for SMSNQSSTFDSLLFRQWLVV here?
Answer: The amyloid nucleation score was “inactive”.

Question: With SMSTN as the substance, how does the amyloid nucleation score read?
Answer: The amyloid nucleation score was “inactive”.

Question: Which amyloid nucleation score does the source give for SMYDKGMGYTCVKSSVNLFV here?
Answer: Its amyloid nucleation score is “inactive”.

Question: Which amyloid nucleation score does the source give for SMYVYPFELVSVDGRLVRTA here?
Answer: Its amyloid nucleation score is “inactive”.

Question: For SNCFQYECMSWSWDYLHECW, which amyloid nucleation score is on record?
Answer: The amyloid nucleation score was “inactive”.

Question: Which amyloid nucleation score does the source give for SNCGL here?
Answer: The amyloid nucleation score was 0.832 ± 0.28.

Question: Which amyloid nucleation score does the source give for SNDCRVTVTVFSIGRDSYVL here?
Answer: The amyloid nucleation score was 2.28 ± 0.089.

Question: Which amyloid nucleation score does the source give for SNDMRGLVGEEIGFLSWN here?
Answer: Its amyloid nucleation score is “inactive”.

Question: For SNDNGTHVSNYRALSSDREK, which amyloid nucleation score is on record?
Answer: Its amyloid nucleation score is “inactive”.

Question: For SNGNMLRSYVSTPCDRGKGS, which amyloid nucleation score is on record?
Answer: The amyloid nucleation score was “inactive”.

Question: With SNITSCLNSQRKMDLAFYRV as the substance, how does the amyloid nucleation score read?
Answer: Its amyloid nucleation score is “inactive”.

Question: Which amyloid nucleation score does the source give for SNLVGCKLIHV here?
Answer: Its amyloid nucleation score is “inactive”.

Question: For SNNLKLAPGSWVPYSDRIHR, which amyloid nucleation score is on record?
Answer: The amyloid nucleation score was “inactive”.

Question: With SNPHDDSHDVILVFLVLGRC as the substance, how does the amyloid nucleation score read?
Answer: The amyloid nucleation score was “inactive”.

Question: For SNRGVADLDLRGLWTARE, which amyloid nucleation score is on record?
Answer: Its amyloid nucleation score is “inactive”.

Question: With SNRQSSGISF as the substance, how does the amyloid nucleation score read?
Answer: Its amyloid nucleation score is -0.784 ± 2.5.

Question: With SNRVRMSFLLADVYCNQTEV as the substance, how does the amyloid nucleation score read?
Answer: Its amyloid nucleation score is -0.183 ± 0.42.

Question: For SNSMPSGNSRMVCCRDPSFP, which amyloid nucleation score is on record?
Answer: The amyloid nucleation score was “inactive”.

Question: For SNSMS, which amyloid nucleation score is on record?
Answer: Its amyloid nucleation score is “inactive”.

Question: For SNSSHRRYYGHVRRNL, which amyloid nucleation score is on record?
Answer: The amyloid nucleation score was “inactive”.

Question: Which amyloid nucleation score does the source give for SNTFRTIGS here?
Answer: Its amyloid nucleation score is “inactive”.

Question: With SNWEFYDRYTYRRLGLEQKV as the substance, how does the amyloid nucleation score read?
Answer: Its amyloid nucleation score is “inactive”.

Question: With SPLSVGEHSEMWLRLVFG as the substance, how does the amyloid nucleation score read?
Answer: The amyloid nucleation score was “inactive”.

Question: With SPPKAAKCICAISSWSLWWT as the substance, how does the amyloid nucleation score read?
Answer: Its amyloid nucleation score is “inactive”.

Question: For SPPSQYSVDQIFHMSWLVYY, which amyloid nucleation score is on record?
Answer: The amyloid nucleation score was “inactive”.

Question: With SPQFELLDITKPCRT as the substance, how does the amyloid nucleation score read?
Answer: The amyloid nucleation score was “inactive”.

Question: Which amyloid nucleation score does the source give for SPRVSMYMSSQKGLEPWESV here?
Answer: Its amyloid nucleation score is “inactive”.

Question: For SPTLRFGRQKFRQCGVKRVS, which amyloid nucleation score is on record?
Answer: The amyloid nucleation score was 1.35 ± 0.11.

Question: For SPVRVDWFSKRFSGYVMRTM, which amyloid nucleation score is on record?
Answer: Its amyloid nucleation score is “inactive”.

Question: For SPYVYRTWFRTLEYCTRDDM, which amyloid nucleation score is on record?
Answer: The amyloid nucleation score was “inactive”.

Question: For SQCFIY, which amyloid nucleation score is on record?
Answer: Its amyloid nucleation score is -0.514 ± 0.78.

Question: With SQCGLTHSLVVGGSSVNTHT as the substance, how does the amyloid nucleation score read?
Answer: The amyloid nucleation score was “inactive”.

Question: With SQCRVYN as the substance, how does the amyloid nucleation score read?
Answer: Its amyloid nucleation score is “inactive”.

Question: Which amyloid nucleation score does the source give for SQFQGAMMYFCEEMCICFFC here?
Answer: Its amyloid nucleation score is 2.01 ± 0.097.

Question: For SQFTFNCTIFNGL, which amyloid nucleation score is on record?
Answer: Its amyloid nucleation score is 2.65 ± 0.064.

Question: For SQKRPMCFSCWTHMVFHSWF, which amyloid nucleation score is on record?
Answer: Its amyloid nucleation score is -0.257 ± 0.46.

Question: For SQLLYI, which amyloid nucleation score is on record?
Answer: Its amyloid nucleation score is “inactive”.

Question: For SQVFTVALNVPNNR, which amyloid nucleation score is on record?
Answer: The amyloid nucleation score was “inactive”.

Question: Which amyloid nucleation score does the source give for SRACSTHCIFEGTWSG here?
Answer: The amyloid nucleation score was “inactive”.

Question: For SRCSSGRLCWRFASHSRGTS, which amyloid nucleation score is on record?
Answer: The amyloid nucleation score was -0.826 ± 1.4.

Question: Which amyloid nucleation score does the source give for SRCWGDILPLNIQYLMR here?
Answer: The amyloid nucleation score was “inactive”.

Question: For SRECLRKLDVSNSTRIK, which amyloid nucleation score is on record?
Answer: Its amyloid nucleation score is -0.097 ± 0.24.

Question: With SRFLLRNCPFLSGHVFTSQT as the substance, how does the amyloid nucleation score read?
Answer: Its amyloid nucleation score is “inactive”.

Question: Which amyloid nucleation score does the source give for SRFLRMASGYWSN here?
Answer: The amyloid nucleation score was “inactive”.

Question: With SRGLFTNGVASFRRVCGLPW as the substance, how does the amyloid nucleation score read?
Answer: The amyloid nucleation score was “inactive”.

Question: With SRITLPDIIMFHCMFNGTDV as the substance, how does the amyloid nucleation score read?
Answer: The amyloid nucleation score was 0.339 ± 0.67.

Question: For SRLNFVCRGGSSAVFRRKAH, which amyloid nucleation score is on record?
Answer: Its amyloid nucleation score is “inactive”.

Question: Which amyloid nucleation score does the source give for SRMLVSKLWKNMGLVSSAYL here?
Answer: The amyloid nucleation score was “inactive”.

Question: For SRNFTRHILHDLHYAGILKA, which amyloid nucleation score is on record?
Answer: Its amyloid nucleation score is “inactive”.

Question: With SRPAYSRRFMLTGDITVIKL as the substance, how does the amyloid nucleation score read?
Answer: Its amyloid nucleation score is 1.66 ± 0.071.

Question: Which amyloid nucleation score does the source give for SRRDYRLGSTVKLVVLGKSF here?
Answer: Its amyloid nucleation score is “inactive”.
